Experimental data from US20210395392A1 (Bristol-Myers Squibb, published 2021).

Experiments:
[1] = target: T1, Human MerTK on hMerTK-expressing cells (human, UniProt Q12866 21-999); experiment: cell-based or functional assay
T1 sequence: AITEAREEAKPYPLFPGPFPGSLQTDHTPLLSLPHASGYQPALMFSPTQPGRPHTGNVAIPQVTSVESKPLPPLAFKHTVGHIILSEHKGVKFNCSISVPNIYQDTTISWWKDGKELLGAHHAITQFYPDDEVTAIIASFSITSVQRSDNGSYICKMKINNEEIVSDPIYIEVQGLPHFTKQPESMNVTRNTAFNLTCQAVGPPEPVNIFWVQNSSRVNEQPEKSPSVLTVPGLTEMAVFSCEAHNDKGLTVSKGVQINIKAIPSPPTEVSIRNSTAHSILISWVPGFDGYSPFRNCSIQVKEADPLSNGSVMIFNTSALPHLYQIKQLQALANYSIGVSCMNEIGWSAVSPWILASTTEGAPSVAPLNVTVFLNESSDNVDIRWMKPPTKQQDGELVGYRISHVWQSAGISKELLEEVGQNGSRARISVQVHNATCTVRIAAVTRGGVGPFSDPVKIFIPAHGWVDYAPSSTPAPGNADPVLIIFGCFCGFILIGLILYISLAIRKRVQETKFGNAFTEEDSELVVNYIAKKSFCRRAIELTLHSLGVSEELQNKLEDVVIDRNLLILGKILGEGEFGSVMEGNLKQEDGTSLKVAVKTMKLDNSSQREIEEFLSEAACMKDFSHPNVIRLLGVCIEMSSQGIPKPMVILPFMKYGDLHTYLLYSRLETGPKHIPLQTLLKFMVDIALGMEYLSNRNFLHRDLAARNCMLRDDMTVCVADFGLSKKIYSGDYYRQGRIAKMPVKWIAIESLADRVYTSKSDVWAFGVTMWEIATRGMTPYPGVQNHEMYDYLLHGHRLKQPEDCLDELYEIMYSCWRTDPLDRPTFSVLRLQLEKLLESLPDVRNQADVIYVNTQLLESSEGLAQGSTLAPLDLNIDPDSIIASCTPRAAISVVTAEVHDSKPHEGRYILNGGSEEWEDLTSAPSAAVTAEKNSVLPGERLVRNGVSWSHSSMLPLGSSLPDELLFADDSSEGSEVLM

[2] = target: T2, Mouse MerTK on mMerTK-expressing cells (mouse, UniProt Q60805 19-994); experiment: cell-based or functional assay
T2 sequence: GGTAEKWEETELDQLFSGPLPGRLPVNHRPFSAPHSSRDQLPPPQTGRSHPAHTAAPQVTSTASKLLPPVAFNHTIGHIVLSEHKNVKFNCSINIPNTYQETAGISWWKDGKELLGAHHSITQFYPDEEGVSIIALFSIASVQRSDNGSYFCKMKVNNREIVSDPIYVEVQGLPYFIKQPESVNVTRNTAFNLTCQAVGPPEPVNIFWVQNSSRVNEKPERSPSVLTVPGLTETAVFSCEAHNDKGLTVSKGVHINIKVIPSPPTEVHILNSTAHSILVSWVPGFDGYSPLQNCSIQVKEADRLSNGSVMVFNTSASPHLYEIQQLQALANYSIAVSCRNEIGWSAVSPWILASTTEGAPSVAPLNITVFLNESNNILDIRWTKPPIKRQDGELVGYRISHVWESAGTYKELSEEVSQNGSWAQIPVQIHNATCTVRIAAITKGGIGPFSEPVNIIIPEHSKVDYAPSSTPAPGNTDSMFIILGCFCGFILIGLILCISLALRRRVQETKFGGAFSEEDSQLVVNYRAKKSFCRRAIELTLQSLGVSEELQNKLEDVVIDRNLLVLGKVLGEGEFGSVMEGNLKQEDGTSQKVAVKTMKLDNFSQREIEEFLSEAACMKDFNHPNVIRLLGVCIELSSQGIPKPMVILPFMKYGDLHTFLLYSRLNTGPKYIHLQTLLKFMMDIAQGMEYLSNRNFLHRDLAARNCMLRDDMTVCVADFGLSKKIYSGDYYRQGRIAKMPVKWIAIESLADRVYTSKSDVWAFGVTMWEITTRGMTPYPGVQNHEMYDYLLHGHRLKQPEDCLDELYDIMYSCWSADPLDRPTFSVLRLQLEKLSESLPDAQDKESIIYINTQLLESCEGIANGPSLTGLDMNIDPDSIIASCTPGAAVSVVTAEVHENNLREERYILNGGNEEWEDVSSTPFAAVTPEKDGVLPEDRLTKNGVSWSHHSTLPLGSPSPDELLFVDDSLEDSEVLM

[3] = target: T1, Human MerTK on hMerTK-expressing cells; experiment: binding to hMerTK-expressing cells
[4] = target: T3, Recombinant soluble extracellular domain of human MerTK (human, UniProt Q12866 21-505); experiment: SPR, soluble MerTK ECD; format for mouse mAbs not detailed
T3 construct: SPR analyte; also called hMerTK
T3 sequence: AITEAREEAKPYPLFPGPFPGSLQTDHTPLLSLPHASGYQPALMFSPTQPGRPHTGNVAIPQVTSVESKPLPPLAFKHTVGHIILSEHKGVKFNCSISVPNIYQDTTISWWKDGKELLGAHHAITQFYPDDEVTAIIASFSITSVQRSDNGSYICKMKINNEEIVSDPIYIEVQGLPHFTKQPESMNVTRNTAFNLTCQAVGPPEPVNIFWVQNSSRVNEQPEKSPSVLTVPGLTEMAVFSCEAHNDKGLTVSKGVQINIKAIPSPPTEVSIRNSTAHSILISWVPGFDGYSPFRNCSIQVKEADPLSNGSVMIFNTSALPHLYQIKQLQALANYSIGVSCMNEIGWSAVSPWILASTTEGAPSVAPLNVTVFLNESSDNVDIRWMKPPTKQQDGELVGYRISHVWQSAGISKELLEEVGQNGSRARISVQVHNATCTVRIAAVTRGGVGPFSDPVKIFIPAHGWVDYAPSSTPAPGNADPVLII

[5] = target: T4, Recombinant soluble extracellular domain of cynomolgus monkey MerTK (cynomolgus monkey, UniProt Q12866 21-505 (human entry)); experiment: as above
T4 construct: SPR analyte; also called cMerTK; Cynomolgus MerTK
T4 chain: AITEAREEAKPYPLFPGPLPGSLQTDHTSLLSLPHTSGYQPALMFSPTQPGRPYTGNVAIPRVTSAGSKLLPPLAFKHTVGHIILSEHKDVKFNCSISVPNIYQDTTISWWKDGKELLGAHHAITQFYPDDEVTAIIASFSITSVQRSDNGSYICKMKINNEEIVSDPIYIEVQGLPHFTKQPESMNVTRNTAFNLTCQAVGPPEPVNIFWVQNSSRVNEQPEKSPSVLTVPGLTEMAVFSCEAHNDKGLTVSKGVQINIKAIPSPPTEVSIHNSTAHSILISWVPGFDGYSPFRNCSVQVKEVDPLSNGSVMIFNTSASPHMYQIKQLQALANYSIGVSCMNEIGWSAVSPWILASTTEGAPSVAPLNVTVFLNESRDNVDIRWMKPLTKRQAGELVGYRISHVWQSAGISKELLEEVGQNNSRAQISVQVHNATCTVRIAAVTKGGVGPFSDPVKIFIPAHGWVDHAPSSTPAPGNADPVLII

[6] = target: T5, Recombinant soluble extracellular domain of mouse MerTK (mouse, UniProt Q60805 19-497); experiment: as above
T5 construct: SPR analyte; also called mMerTK
T5 sequence: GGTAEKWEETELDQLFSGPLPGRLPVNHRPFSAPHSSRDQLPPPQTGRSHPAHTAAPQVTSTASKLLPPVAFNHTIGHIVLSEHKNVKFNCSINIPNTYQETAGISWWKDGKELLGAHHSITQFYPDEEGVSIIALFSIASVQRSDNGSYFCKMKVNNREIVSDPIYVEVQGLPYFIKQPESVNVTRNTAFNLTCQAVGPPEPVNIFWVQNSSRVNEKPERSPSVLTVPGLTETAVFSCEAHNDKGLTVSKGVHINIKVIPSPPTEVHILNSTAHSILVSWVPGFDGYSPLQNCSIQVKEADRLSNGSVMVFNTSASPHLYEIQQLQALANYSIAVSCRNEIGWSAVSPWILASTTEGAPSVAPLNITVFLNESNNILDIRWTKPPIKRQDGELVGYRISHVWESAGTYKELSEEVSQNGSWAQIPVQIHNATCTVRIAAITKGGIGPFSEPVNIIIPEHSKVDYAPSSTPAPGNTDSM

Signaling Assay, hMerTK with Gas6, pSTAT1 IC50 (nM) [1]: > 100 nM
Signaling Assay, hMerTK without Gas6, pSTAT1 IC50 (nM) [1]: > 100 nM
Signaling Assay, mMerTK with Gas6, pSTAT1 IC50 (nM) [2]: 0.9 nM
binding result [3]: no binding
Kd [4]: > 250 nM
Kd [5]: > 100 nM
Kd [6]: 35.1 nM
koff [6]: 0.00256 s⁻¹
kon [6]: 72700 M⁻¹ s⁻¹
t1/2 [6]: 4.5 min
B1: MoMAb 16B9 (antibody, V domains shown)
VH: EVQLQQSRPDLVKPGASVKMSCKASGYTFIDYNMHWVKQRHGKSLEWIGYIHPNNGGTSYNQKFKDKATLTMNKSSSTAYMELRSLTSEDSAVYYCSRSGIYYDYDSFFDYWGQGTTLTVSS
VL: DIQMTQSPASLYVSVGETVTITCRASENIYSHLAWYQQKLGKSPHLLVYAATNLADGVPSRFSGSGSGTQYSLKINSLQSEDFGSYYCQHFWGSPWTFGGGTKLEIK
notes: Mouse mAb
